# Results published in paper PMC3130265.
# Molecular target: GST-Sam68(1-277) (UniProt Q60749 1-277)
# Assay: EMSA
# Chain of GST-Sam68(1-277) (Q60749 1-277): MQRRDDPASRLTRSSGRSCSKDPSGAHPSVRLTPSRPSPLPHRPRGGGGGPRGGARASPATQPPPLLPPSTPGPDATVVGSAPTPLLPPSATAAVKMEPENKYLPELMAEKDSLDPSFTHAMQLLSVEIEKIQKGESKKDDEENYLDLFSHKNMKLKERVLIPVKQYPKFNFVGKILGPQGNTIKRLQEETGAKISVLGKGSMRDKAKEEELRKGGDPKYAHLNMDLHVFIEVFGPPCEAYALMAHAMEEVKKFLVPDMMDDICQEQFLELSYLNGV
binder,measurement,value
UAUUUAAUUCAUAAAUUUUGUUUUGUUUCUAGGGA (ssRNA) [Sgce WT probe (intron 7/exon 8 boundary)],binding result,binds
